{
  "source": "paper PMC6160236",
  "about": "“Disrupted structure and aberrant function of CHIP mediates the loss of motor and cognitive function in preclinical models of SCAR16” (PLoS Genetics, 2018)",
  "key": {"[1]": {"target": "T1, CHIP (carboxyl terminus of heat shock 70-interacting protein), recombinant His-tagged wild type (human), Q9UNE7", "T1 chain": "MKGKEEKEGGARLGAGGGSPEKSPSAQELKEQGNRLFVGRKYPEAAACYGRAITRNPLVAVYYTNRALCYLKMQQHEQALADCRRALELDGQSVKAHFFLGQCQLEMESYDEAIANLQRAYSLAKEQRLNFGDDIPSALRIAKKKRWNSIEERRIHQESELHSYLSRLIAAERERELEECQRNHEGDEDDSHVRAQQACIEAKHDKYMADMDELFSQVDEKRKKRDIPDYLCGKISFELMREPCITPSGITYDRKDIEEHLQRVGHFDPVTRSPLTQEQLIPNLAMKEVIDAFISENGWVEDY", "assay": "SEC-MALS; GE Superdex 200 column with Wyatt DAWN HELEOS-II and T-Rex refractometer; 100 μl of 0.5 mg/ml of each sample loaded; oligomeric species of each CHIP protein", "conditions": "remark: other sources report otherwise"}, "[2]": {"target": "the molecule itself", "assay": "SEC-MALS; GE Superdex 200 column with Wyatt DAWN HELEOS-II and T-Rex refractometer; 100 μl of 0.5 mg/ml of each sample loaded; oligomeric species of each CHIP protein"}, "[3]": {"target": "T2, myc-CHIP wild type (pcDNA3-mycCHIP) (human), Q9UNE7", "T2 chain": "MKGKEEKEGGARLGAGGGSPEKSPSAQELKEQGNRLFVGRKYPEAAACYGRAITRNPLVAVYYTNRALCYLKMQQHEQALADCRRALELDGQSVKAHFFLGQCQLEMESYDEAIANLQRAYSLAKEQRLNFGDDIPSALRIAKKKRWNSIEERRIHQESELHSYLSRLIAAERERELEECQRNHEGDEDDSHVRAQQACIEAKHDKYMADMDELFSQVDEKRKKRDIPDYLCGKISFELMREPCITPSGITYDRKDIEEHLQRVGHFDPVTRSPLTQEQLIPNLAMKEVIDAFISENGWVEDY", "assay": "native gel or EMSA; blue native PAGE (4-16% NativePAGE) of fresh lysates of transfected COS-7 cells, immunoblot with anti-myc", "conditions": "remark: other sources report otherwise"}, "[4]": {"target": "T3, myc-CHIP-K30A (pcDNA3-mycCHIP-K30A) (human), Q9UNE7", "T3 chain": "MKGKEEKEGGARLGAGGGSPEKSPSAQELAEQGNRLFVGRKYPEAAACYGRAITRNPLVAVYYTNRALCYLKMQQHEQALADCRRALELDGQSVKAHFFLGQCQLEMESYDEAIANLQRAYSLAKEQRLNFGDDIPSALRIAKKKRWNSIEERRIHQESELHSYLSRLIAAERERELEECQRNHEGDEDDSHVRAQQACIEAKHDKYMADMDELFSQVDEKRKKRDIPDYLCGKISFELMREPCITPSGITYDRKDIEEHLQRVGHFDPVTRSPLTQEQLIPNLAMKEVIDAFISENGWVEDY", "assay": "native gel or EMSA; blue native PAGE (4-16% NativePAGE) of fresh lysates of transfected COS-7 cells, immunoblot with anti-myc", "conditions": "remark: other sources report otherwise"}, "[5]": {"target": "T4, CHIP-K30A, recombinant His-tagged (human), Q9UNE7", "T4 chain": "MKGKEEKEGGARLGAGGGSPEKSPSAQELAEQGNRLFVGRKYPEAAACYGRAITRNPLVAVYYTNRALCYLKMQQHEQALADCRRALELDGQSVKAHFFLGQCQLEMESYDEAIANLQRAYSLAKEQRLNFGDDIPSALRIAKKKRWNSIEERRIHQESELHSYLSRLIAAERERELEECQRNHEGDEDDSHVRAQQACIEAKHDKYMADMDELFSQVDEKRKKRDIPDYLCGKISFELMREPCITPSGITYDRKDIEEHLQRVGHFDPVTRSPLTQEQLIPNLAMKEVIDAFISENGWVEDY", "assay": "SEC-MALS; GE Superdex 200 column with Wyatt DAWN HELEOS-II and T-Rex refractometer; 100 μl of 0.5 mg/ml of each sample loaded; oligomeric species of each CHIP protein", "conditions": "remark: other sources report otherwise"}},
  "data": [
    {"binder": "CHIP (carboxyl terminus of heat shock 70-interacting protein), recombinant His-tagged wild type, Q9UNE7 1-303 (enzyme) MKGKEEKEGGARLGAGGGSPEKSPSAQELKEQGNRLFVGRKYPEAAACYGRAITRNPLVAVYYTNRALCYLKMQQHEQALADCRRALELDGQSVKAHFFLGQCQLEMESYDEAIANLQRAYSLAKEQRLNFGDDIPSALRIAKKKRWNSIEERRIHQESELHSYLSRLIAAERERELEECQRNHEGDEDDSHVRAQQACIEAKHDKYMADMDELFSQVDEKRKKRDIPDYLCGKISFELMREPCITPSGITYDRKDIEEHLQRVGHFDPVTRSPLTQEQLIPNLAMKEVIDAFISENGWVEDY", "values": [
      {"measurement": "percent of the protein as 2mer", "setting": "[1]", "result": 69.7, "unit": "%"},
      {"measurement": "percent of the protein as 4mer", "setting": "[1]", "result": 25.2, "unit": "%"},
      {"measurement": "percent of the protein as 6mer", "setting": "[1]", "result": 4.8, "unit": "%"},
      {"measurement": "stoichiometry N", "setting": "[1]", "result": 2}
    ]},
    {"binder": "CHIP-T246M, recombinant His-tagged (enzyme, human, UniProt Q9UNE7 1-303, looked up, CHIP (gene STUB1), full-length protein with the SCAR16 patient mutation p.T246M in the U-box; T246M is a mutation found in SCAR16 patients; source: Escherichia coli BL21(DE3), purified (HisTrap HP)) MKGKEEKEGGARLGAGGGSPEKSPSAQELKEQGNRLFVGRKYPEAAACYGRAITRNPLVAVYYTNRALCYLKMQQHEQALADCRRALELDGQSVKAHFFLGQCQLEMESYDEAIANLQRAYSLAKEQRLNFGDDIPSALRIAKKKRWNSIEERRIHQESELHSYLSRLIAAERERELEECQRNHEGDEDDSHVRAQQACIEAKHDKYMADMDELFSQVDEKRKKRDIPDYLCGKISFELMREPCIMPSGITYDRKDIEEHLQRVGHFDPVTRSPLTQEQLIPNLAMKEVIDAFISENGWVEDY", "values": [
      {"measurement": "stoichiometry N", "setting": "[2]", "result": "10 to 12"}
    ]},
    {"binder": "myc-CHIP wild type (pcDNA3-mycCHIP), Q9UNE7 1-303 (enzyme) MKGKEEKEGGARLGAGGGSPEKSPSAQELKEQGNRLFVGRKYPEAAACYGRAITRNPLVAVYYTNRALCYLKMQQHEQALADCRRALELDGQSVKAHFFLGQCQLEMESYDEAIANLQRAYSLAKEQRLNFGDDIPSALRIAKKKRWNSIEERRIHQESELHSYLSRLIAAERERELEECQRNHEGDEDDSHVRAQQACIEAKHDKYMADMDELFSQVDEKRKKRDIPDYLCGKISFELMREPCITPSGITYDRKDIEEHLQRVGHFDPVTRSPLTQEQLIPNLAMKEVIDAFISENGWVEDY", "values": [
      {"measurement": "stoichiometry N", "setting": "[3]", "result": 2}
    ]},
    {"binder": "myc-CHIP-K30A (pcDNA3-mycCHIP-K30A), Q9UNE7 1-303 (enzyme) MKGKEEKEGGARLGAGGGSPEKSPSAQELAEQGNRLFVGRKYPEAAACYGRAITRNPLVAVYYTNRALCYLKMQQHEQALADCRRALELDGQSVKAHFFLGQCQLEMESYDEAIANLQRAYSLAKEQRLNFGDDIPSALRIAKKKRWNSIEERRIHQESELHSYLSRLIAAERERELEECQRNHEGDEDDSHVRAQQACIEAKHDKYMADMDELFSQVDEKRKKRDIPDYLCGKISFELMREPCITPSGITYDRKDIEEHLQRVGHFDPVTRSPLTQEQLIPNLAMKEVIDAFISENGWVEDY", "values": [
      {"measurement": "stoichiometry N", "setting": "[4]", "result": 2}
    ]},
    {"binder": "CHIP-K30A, recombinant His-tagged, Q9UNE7 1-303 (enzyme) MKGKEEKEGGARLGAGGGSPEKSPSAQELAEQGNRLFVGRKYPEAAACYGRAITRNPLVAVYYTNRALCYLKMQQHEQALADCRRALELDGQSVKAHFFLGQCQLEMESYDEAIANLQRAYSLAKEQRLNFGDDIPSALRIAKKKRWNSIEERRIHQESELHSYLSRLIAAERERELEECQRNHEGDEDDSHVRAQQACIEAKHDKYMADMDELFSQVDEKRKKRDIPDYLCGKISFELMREPCITPSGITYDRKDIEEHLQRVGHFDPVTRSPLTQEQLIPNLAMKEVIDAFISENGWVEDY", "values": [
      {"measurement": "percent of the protein as 2mer", "setting": "[5]", "result": 80.4, "unit": "%"},
      {"measurement": "percent of the protein as 4mer", "setting": "[5]", "result": 16.4, "unit": "%"},
      {"measurement": "percent of the protein as 6mer", "setting": "[5]", "result": 2.6, "unit": "%"},
      {"measurement": "stoichiometry N", "setting": "[5]", "result": 2}
    ]}
  ]
}
